Results: patent publication US20160194391A1 (AstraZeneca / MedImmune, published 2016)
Like-named read-outs stand apart in the source and are kept apart here. One block for each binder: values may come before it.

Tests used:
[1] = biological target: T1, primate IL-23 (p40:p19 fusion, 6×HIS) (primate); assay: cell-based or functional assay
T1 chain: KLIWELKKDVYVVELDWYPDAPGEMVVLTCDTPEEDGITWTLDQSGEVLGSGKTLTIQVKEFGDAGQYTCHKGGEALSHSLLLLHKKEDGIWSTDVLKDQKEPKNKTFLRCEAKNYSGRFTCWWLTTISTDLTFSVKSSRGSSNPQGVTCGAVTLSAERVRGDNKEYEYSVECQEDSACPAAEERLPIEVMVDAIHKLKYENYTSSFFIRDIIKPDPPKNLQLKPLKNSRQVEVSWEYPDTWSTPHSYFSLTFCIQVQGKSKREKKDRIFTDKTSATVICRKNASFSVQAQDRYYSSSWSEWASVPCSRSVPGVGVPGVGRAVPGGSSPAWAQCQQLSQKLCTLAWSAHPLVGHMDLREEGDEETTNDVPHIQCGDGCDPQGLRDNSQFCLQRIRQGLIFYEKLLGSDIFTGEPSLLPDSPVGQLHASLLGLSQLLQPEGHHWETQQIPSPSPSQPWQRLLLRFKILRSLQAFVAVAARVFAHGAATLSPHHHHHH

human IL-12 [2] = biological target: T2, human IL-12 (human, UniProt P29459 23-219; P29460 23-328); assay: ELISA, human IL-12 coated on the plate; antibody concentration not given [Binding to Human IL-12]
T2 construct: Bioassay used Prospec-Tany Cyt-362
T2 sequence (looked up) 1: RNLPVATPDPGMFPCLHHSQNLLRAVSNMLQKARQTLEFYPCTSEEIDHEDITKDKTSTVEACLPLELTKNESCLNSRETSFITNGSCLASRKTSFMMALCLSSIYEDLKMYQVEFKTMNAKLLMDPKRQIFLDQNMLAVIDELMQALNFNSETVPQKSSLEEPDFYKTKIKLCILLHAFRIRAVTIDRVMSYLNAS
T2 sequence (looked up) 2: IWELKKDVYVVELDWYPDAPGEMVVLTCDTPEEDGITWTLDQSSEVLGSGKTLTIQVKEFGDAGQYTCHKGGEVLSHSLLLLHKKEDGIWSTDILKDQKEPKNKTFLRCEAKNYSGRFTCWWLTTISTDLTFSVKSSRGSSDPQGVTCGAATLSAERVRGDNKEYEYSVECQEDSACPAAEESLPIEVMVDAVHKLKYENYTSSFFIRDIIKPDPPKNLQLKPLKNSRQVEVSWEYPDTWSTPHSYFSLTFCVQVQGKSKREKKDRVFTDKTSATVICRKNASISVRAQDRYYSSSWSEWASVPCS

human IL-12 p40 subunit = biological target: T3, human IL-12 p40 subunit (human, UniProt P29460 23-328); assay: ELISA, human IL-12 p40 subunit coated on the plate; antibody concentration not given [Binding to human IL-12 p40]
T3 construct: Coated on ELISA plates
T3 sequence (looked up): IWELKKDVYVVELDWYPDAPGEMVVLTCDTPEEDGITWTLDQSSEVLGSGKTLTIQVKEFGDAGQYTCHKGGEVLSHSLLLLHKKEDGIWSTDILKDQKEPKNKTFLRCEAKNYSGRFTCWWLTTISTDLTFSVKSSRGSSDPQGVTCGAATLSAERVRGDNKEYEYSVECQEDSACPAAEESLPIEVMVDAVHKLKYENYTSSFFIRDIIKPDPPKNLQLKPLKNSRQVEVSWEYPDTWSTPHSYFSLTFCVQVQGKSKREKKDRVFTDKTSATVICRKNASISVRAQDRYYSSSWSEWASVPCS

[3] = biological target: T4, human dimeric IL-23 (eBiosciences 34-8239) (human, UniProt P29460 23-328; Q9NPF7 20-189); assay: cell-based or functional assay
T4 sequence (looked up) 1: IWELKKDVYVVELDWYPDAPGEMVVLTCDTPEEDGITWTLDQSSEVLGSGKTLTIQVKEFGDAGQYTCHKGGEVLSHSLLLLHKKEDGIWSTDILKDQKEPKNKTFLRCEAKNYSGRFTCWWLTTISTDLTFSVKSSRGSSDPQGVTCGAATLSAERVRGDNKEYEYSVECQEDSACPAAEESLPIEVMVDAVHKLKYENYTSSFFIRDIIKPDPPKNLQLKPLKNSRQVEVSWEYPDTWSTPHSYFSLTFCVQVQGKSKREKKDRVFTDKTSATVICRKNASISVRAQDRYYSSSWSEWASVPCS
T4 sequence (looked up) 2: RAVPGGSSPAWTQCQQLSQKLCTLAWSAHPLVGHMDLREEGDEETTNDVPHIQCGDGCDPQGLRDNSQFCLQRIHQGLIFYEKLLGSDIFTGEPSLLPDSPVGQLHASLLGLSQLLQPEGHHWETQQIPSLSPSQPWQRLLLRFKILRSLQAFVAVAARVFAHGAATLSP

IL-23 p40-p19-His = biological target: T5, IL-23 p40-p19-His (human); assay: ELISA on IL-23 p40-p19-His
T5 construct: Single-chain fusion coated on the IL-23 ELISA plates; also called p40:p19-6×HIS
T5 chain: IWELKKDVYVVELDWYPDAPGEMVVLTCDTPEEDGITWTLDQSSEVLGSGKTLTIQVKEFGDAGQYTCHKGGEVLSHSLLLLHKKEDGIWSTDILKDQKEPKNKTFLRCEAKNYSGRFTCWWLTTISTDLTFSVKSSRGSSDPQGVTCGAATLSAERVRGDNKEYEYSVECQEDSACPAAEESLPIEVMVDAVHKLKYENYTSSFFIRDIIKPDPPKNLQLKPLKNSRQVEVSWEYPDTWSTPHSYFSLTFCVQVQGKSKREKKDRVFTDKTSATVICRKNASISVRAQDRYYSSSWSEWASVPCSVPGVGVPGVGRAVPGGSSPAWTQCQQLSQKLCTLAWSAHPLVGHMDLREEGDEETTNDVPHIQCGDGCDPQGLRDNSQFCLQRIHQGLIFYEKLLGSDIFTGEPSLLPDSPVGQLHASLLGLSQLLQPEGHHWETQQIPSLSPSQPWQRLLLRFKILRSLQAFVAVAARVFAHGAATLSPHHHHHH

[4] = biological target: T4, human dimeric IL-23 (eBiosciences …); assay: cell-based or functional assay; remark: listed apart in the source
monkey IL-12 (macaque) [5] = biological target: T6, monkey IL-12 (macaque) (macaque, UniProt P48091 23-219; P48095 23-328); assay: cell-based or functional assay
T6 sequence (looked up) 1: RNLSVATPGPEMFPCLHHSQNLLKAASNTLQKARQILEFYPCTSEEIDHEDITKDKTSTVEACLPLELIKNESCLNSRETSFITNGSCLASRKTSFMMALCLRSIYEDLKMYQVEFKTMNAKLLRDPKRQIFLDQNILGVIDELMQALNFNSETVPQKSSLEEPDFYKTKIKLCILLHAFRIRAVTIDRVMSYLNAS
T6 sequence (looked up) 2: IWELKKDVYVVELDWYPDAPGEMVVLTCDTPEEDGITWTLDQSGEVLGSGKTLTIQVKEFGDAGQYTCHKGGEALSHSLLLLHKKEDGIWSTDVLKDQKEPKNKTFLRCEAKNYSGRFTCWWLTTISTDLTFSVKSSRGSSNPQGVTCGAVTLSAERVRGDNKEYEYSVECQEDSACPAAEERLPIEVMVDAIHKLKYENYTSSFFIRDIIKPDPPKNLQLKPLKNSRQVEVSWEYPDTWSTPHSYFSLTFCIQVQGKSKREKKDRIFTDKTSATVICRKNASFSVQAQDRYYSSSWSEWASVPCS

monkey IL-12 (macaque) [6] = biological target: T6, monkey IL-12 (macaque); assay: cell-based or functional assay; remark: listed apart in the source
human IL-12 [7] = biological target: T2, human IL-12; assay: IL-12 binding assay of the selection not described
human IL-6 [8] = biological target: T7, human IL-6 (human, UniProt P05231 30-212); assay: cell-based or functional assay
Primate IL-6 = biological target: T8, Primate IL-6 (Macaca mulatta, UniProt P51494); assay: cell-based or functional assay
T8 sequence (cytokine, looked up): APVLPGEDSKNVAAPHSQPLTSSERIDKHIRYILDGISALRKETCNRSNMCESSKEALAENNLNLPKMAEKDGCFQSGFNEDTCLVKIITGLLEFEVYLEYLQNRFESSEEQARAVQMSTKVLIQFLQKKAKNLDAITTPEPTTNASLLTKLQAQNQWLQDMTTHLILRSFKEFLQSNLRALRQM

human IL-6 [9] = biological target: T7, human IL-6; assay: SPR (SensiQ Pioneer), mAb captured on protein G, IL-6 as analyte (3×FLAG-IL-6 or IL-6 CYT-213, 1-100 nM), 25 C, 1:1 model
Description: (§1) Equilibrium constants for rabbit human chimeric mAbs were determined by binding the mAb to the protein G coated chip followed by binding of each analyte (IL-6 or IL-23) to its respective mAb. In order to minimize mass transfer effects, the surface densities of the mAbs for each analyte were adjusted so that as analyte binding approached saturation its corresponding RU fell between 200 and 300. […] For each binding and dissociation cycle the chip surface was regenerated with 15 uL of 20 mM NaOH (5671-02, Mallinckrodt Baker, Philliphsburg, N.J.). The assay temperature was maintained at 25° C. with an analyte flow rate of 50 μL/min and included a 2 minute association phase and 10-30 minute dissociation phase. The on/off rates (kₐ/kd) and dissociation constants (KD) were determined using the format described above along with pseudo-first-order 1:1 interaction model software (Qdat, ICx Nomadics, Stillwater, Okla.).

human IL-12 [10] = biological target: T2, human IL-12; assay: cell-based or functional assay
[11] = biological target: T4, human dimeric IL-23 (eBiosciences …); assay: cell-based or functional assay; remark: listed apart in the source
[12] = biological target: T4, human dimeric IL-23 (eBiosciences …); assay: SPR (SensiQ Pioneer), mAb captured on protein G, human dimeric IL-23 as analyte (1-100 nM), 25 C, 1:1 model; the sentence names no analyte
Description: as §1

B3: 9H4 chimeric mAb (antibody, V domains shown)
VH: QSLEESGGRLVTPGTPLTLTCTASGFSLSSYDMSWVRQAPGKGLEWIGYIYTDTSTYYANWAKGRFSISKTSTTVDLKMTSLTAEDTATYFCAKGSTDYAFDTRLDLWGPGTLVTVSS
VL: YDMTQTPASVEVAMGGTVTIKCQASQSISNELSWYQQKPGQPPKLLIYRTSTLASGVSSRFKGSGSGTEYTLTISGVECADAATYYCQQGYNSNDVDNVFGGGTEVVVVR
notes: Rabbit/human chimeric IgG (human IgG1, kappa); HEK293; also called 9H4 clone
EC50, inhibition of IL-6 induced B9 cell proliferation (human IL-6 [8]): 0.109 ng/mL | IC50 (read off the curve) (B9 proliferation, OD570-600) (Primate IL-6): ~10 ng/mL | Kd (human IL-6 [9]): 0.058 nM | koff (human IL-6 [9]): 4.75e-05 s⁻¹ | kon (human IL-6 [9]): 816000 M⁻¹ s⁻¹

B4: 22H8 chimeric mAb (antibody, V domains shown)
VH: QSLEESGGRLVTPGTPLTLTCTVSGFSLSTYTMNWVRQSPGKGLEWIGAISYDGGTAYANWAKGRFTISKTSTTVDLQIASPTTEDTATYFCARGFYVYAYIGDAFDPWGPGTLVTVSS
VL: AVLTQTPSPVSATVGGTVTIKCQSSQTVYKNNLLSWYQQKPGQPPKLLIYLASTLASGVPSRFSGSGSGTQFTLTISGVQCDDAATYYCLGGYDDDADTAFGGGTEVVVVR
notes: Rabbit/human chimeric IgG (human IgG1, kappa); HEK293; also called mAb 22H8
EC50: concentration necessary to inhibit bioactivity of 50 pg/ml of IL-6 [3]: 0.603 ng/mL | binding result (IL-23 p40-p19-His): binds | IC50 (read off the curve) (IL-17 from mouse splenocytes, OD450) [1]: ~4 ng/mL | IC50 (read off the curve) (interferon-gamma from NK92 cells, OD450) (human IL-12 [10]): ~0.8 ng/mL | IC50 (read off the curve) (IL-17 from mouse splenocytes, OD450) [11]: ~0.8 ng/mL | Kd [12]: 0.221 nM | koff [12]: 8.94e-05 s⁻¹ | kon [12]: 403000 M⁻¹ s⁻¹

The remaining lines, values ahead:

IC50 (read off the curve) (IL-17 from mouse splenocytes, OD450) [1]: ~0.2 ng/mL | binding result (human IL-12 [2]): binds | binding result (human IL-12 p40 subunit): binds
B1: 31A12 chimeric mAb (antibody, V domains shown)
VH: QSLEESGGRLVTPGTPLTLTCTASGFSLSSYWMTWVRQAPGGGLEWIGTIATSSTYYASWAKGRFTISRTSTTVDLKMTSLTTEDTATYFCARGLTTDYDLDLWGPGTLVTVSS
VL: LVMTQTPASVSAAVGGTVTINCQASEDIESYLAWYQQKPGQRPKLLIYSASTLTSGVPSRFKGSGSGKQFTLTISGVQREDAATYYCLGADDTTTVFGGGTKVVVVR
notes: Rabbit/human chimeric IgG (human IgG1, kappa); HEK293; also called 31A12 mAb

EC50: concentration necessary to inhibit bioactivity of 50 pg/ml of IL-6 [3]: 0.385 ng/mL | binding result (IL-23 p40-p19-His): binds | IC50 (read off the curve) (IL-17 from mouse splenocytes, OD450) [4]: ~2 ng/mL | IC50 (read off the curve) (monkey IL-12 (macaque) [5]): ~4 ng/mL | IC50 (read off the curve) (interferon-gamma from NK92 cells, OD450) (monkey IL-12 (macaque) [6]): ~4 ng/mL | binding result (human IL-12 [7]): binds
B2: 45G5 chimeric mAb (antibody, V domains shown)
VH: QSVEESGGRLVTPGTPLTLTCTVSGFSLSVYPINWVRQAPGKGLGWIGIINDVDDTAYSAWAKGRFTISKASSTTVDLKITSPTTEDTATYFCARGYLSYAYAGDAFDPWGPGTLVTVSS
VL: AVLTQTPSPVSAAVGGTVTIKCQSSQSIYNNNLLSWYQQKPGQPPRLLIHFASTLASGVPDRFSGSGSGTQFTLTISGVQCDDAATYYCLGGYDDDADTAFGGGTEVVVV
notes: Rabbit/human chimeric IgG (human IgG1, kappa); HEK293; also called mAb 45G5
